Source: paper PMC7320042
Read-outs that look alike come from different tables or passages of the source. Blank lines part the entries; values can stand above or below the binder they belong to.

Assays:
recombinant trypsin [1] = target: recombinant trypsin (UniProt P00761)
recombinant trypsin [2] = target: recombinant trypsin (UniProt P00761); assay: enzyme inhibition titration; trypsin (1.35 mg/mL) inhibited by increasing contents of rSKTI; residual activity on BAEE, 67 mM phosphate buffer pH 7.6, 25 °C; ratio worked out from the concentrations of trypsin and rSKTI
recombinant trypsin [3] = target: recombinant trypsin (UniProt P00761); assay: enzyme inhibition kinetics (Lineweaver-Burk); trypsin (1.35 mg/mL stock) activity on BAEE (0.01-0.075 mM) with and without SKTI or rSKTI (0.63 mg/mL stock); 25 °C, 67 mM phosphate buffer pH 7.6; KI from Vmax/V'max = 1 + [I]/KI
recombinant trypsin [4] = target: recombinant trypsin (UniProt P00761); assay: as above; remark: listed apart in the source

Sequence of UniProt P00761 (P00761 whole entry): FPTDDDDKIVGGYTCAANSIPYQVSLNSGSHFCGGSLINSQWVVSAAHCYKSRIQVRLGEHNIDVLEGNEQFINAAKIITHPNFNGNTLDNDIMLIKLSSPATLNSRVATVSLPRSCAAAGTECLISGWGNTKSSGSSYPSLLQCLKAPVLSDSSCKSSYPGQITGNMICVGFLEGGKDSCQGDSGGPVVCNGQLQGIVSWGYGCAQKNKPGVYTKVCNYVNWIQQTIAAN

inhibition of trypsin (1.35 mg/mL) activity on BAEE by increasing rSKTI: IC50, the amount of rSKTI when half trypsin activity was inhibited; activity completely inhibited at 1.5 mg/mL rSKTI (recombinant trypsin [1]): 0.5 mg/mL | stoichiometry N (recombinant trypsin [2]): 1 | Ki (recombinant trypsin [3]): 2200 nM | Ki (recombinant trypsin [4]): 2290 nM
B1: recombinant soybean Kunitz trypsin inhibitor (natural protein)
chain: DFVLDNEGNPLENGGTYYILSDITAFGGIRAAPTGNERCPLTVVQSRNELDKGIGTIISSPYRIRFIAEGHPLSLKFDSFAVIMLCVGIPTEWSVVEDLPEGPAVKIGENKDAMDGWFRLERVSDDEFNNYKLVFCPQQAEDDKCGDIGISIDHDDGTRRLVVSKNKPLVVQFQKLDKESL

Ki (recombinant trypsin [3]): 1670 nM
B2: natural soybean Kunitz trypsin inhibitor (natural protein)
chain: B1 chain
